The data set “crystal structure” deals with the molecule itself. Briefly: crystal structure.
The data set “static light scattering” deals with the molecule itself. Put plainly: static light scattering.

The values below come from PMC8684725 (Molecular Biology of the Cell, 2021).

B1: WNK1SA (WNK1/S382A), WNK1 (194-483) S382A, unphosphorylated kinase domain (domain or fragment)
chain: not shown
In the case of B1, the binding result in “crystal structure” is “binds”.

B2: unphosphorylated kinase domain of WNK3, WNK3 (118-409) (domain or fragment)
chain: not shown
B2: in the data set “static light scattering”, the stoichiometry N (in general, the number of molecules, sites or subunits per partner or assembly) was 2.
